Data reported in US20230035798A1 (CAPELLA BIOSCIENCE, published 2023).
Changes are numbered by the printed parent chain.

T1: recombinant human soluble LIGHT, amino acids 74-240 (R&D Systems 664-LI-025) (human, UniProt O43557 74-240)
T1 chain: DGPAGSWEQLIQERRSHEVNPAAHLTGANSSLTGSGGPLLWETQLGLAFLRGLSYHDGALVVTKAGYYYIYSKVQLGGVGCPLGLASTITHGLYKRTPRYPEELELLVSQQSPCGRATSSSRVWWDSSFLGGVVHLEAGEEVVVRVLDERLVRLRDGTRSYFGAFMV

B1: 2E08 (antibody, human IgG4, V domains shown)
VH: QVQMKESGAELVRPGVSVKISCKGSGYTFTDYAIHWVKQSHAKTLEWIGVISTYYGDASYNQKFKGKATMTVDKSSSTAYMELARLTSDDSAIYYCARSRGEYGNYDAMDYWGQGTSVTVSS
VL: DIVLTQSPASLAVSLGQRATISCKASQSVDYDGDSYMNWYQQKPGQPPKLLIYAASNLESGIPARFSGSGSGTDFTLNIHPVEEEDAATYYCQQSNEDPLTFGAGTKLELK
notes: chimeric human IgG4 (S-to-P, L-to-E at 248), human CL; also called Parental 2E08
B2: 3A07 (antibody, human IgG4, V domains shown)
VH: QVQLQQSGAELVRPGAPVTLSCKASDYTFTDSEIHWVKQTPVHGLEWIGEIDPETGGTAYNQKFKGKATLTADKSSSTAYMELRSLTSEDSAVYYCSRETDYFFDYWGQGTTLTVSS
VL: ENVLTQSPAIMSASPGEKVTMTCSASSSVSYMYWYQQRPGSSPRLLIYDTSNLASGVPVRFSGSGSGTSYSLTISRMEAEDAATYYCQQWSSYPLTFGSGTKLEIK
notes: chimeric human IgG4 (S-to-P, L-to-E at 248), human CL; also called Parental 3A07
B3: 3C10 (antibody, human IgG4, V domains shown)
VH: B2 VH with Q1E, P17S
VL: B2 VL with E1D, N2V, L4M, S7T, R38K, S99A, I105L
notes: chimeric human IgG4 (S-to-P, L-to-E at 248), human CL; also called Parental 3C10
B4: 2B11 (antibody, human IgG4, V domains shown)
VH: B1 VH with Q1E, M4L, K5V, T44S, D89E
VL: DIVLTQSPASLAVSLGQRATISCRASESVDSYGNSFMHWYQQKPGQPPKLLIYRASNLESGIPARFSGSGSRTDFTLTINPVEADDVATYYCQQSNEDPYTFGGGTKLEIK
notes: chimeric human IgG4 (S-to-P, L-to-E at 248), human CL; also called Parental 2B11
B5: 3B04 (antibody, human IgG4, V domains shown)
VH: B2 VH with S7P, P17S, D26G, S32Y, I34M, G57D, N61S, L83F
VL: DIQMTQTPASLSASVGETVTITCGASENIYGALNWYQRKQGKSPQLLIYGATNLADGMSSRFSGSGSGRQYSLKISSLHPDDFATYYCQNVLTTPWTFGGGTKLEIKR
notes: chimeric: mouse variable domains on human IgG4 HC (S-to-P and L-to-E at 248) and human CL; also called Parental 3B04; 3B04 chimeric
B6: 3D12 (antibody, human IgG4, V domains shown)
VH: B2 VH with S7P, P17S
VL: B5 VL with T7S, F83V, T93S
notes: chimeric: mouse variable domains on human IgG4 HC (S-to-P and L-to-E at 248) and human CL; also called Parental 3D12; 3D12 chimeric
B7: 3E09 (antibody, V domains shown)
VH: EVQLVESGGGLVKPGGSLKLSCEASGFTFSDYYMYWVRQTPEKRLEWVAAIGDGGIYTYYADTVKGRFTISRDNAKNILYLQMSSLKSNDTAMYYCARGTGDGFAYWGQGTLVTVS
VL: B4 VL with R54L, I62V, N80D, V87A, S95N
notes: chimeric human IgG4 (S-to-P, L-to-E at 248), human CL; also called Parental 3E09

The binders below were run against T2, human LIGHT (TNFSF14), full length, membrane-bound (214E allele) (human, UniProt O43557 1-240) (assay: flow cytometry, transiently transfected HEK293FF cells).
T2 construct: also called membrane LIGHT; human membrane LIGHT
Excerpt: (§1) In order to compare the cross-reactivity of the mAbs to both human and cynomolgus LIGHT, transiently transfected human or cynomolgus LIGHT-HEK293FF cells were utilised in which approximately 50% of the cells expressed LIGHT and bound mAb was detected with goat anti-human IgG FITC. The EC50 of each mAb is depicted in Table 6 after correction for background binding to untransfected cells. (Note that when the relationship between receptor occupancy and response is linear, EC50 may be equivalent or substantially equivalent to KD).
Target sequence in this assay (O43557 whole entry K214E): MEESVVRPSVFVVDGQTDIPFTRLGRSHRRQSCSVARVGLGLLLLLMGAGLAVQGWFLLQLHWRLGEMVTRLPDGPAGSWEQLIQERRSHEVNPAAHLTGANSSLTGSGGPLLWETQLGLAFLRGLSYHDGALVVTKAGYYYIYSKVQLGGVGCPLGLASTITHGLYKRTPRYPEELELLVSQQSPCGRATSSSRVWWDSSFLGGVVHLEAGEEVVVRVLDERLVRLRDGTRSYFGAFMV

Binder	EC50 [nM]
B1	0.3
B2	0.1
B3	0.2
B4	0.4
B5	0.2
B6	0.2
B7	1.3

These binders were tested against T3, cynomolgus (Macaca fascicularis) LIGHT, membrane-bound (cynomolgus (Macaca fascicularis), UniProt E9NVF7 1-240) in the same assay as above.
T3 construct: whole, on cells; also called cynomolgus membrane LIGHT; HEK293FF-cynomolgus LIGHT cells
T3 sequence (E9NVF7 entry or part of it): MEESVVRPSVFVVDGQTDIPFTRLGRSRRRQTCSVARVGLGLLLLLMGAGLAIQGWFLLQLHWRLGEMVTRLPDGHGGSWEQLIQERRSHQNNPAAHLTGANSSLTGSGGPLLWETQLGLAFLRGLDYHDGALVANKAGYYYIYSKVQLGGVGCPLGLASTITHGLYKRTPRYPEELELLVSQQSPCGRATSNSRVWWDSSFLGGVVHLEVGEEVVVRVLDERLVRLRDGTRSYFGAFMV
Excerpt: as §1

Binder	EC50 [nM]
B1	0.3
B2	7.6
B3	10.3
B4	0.02
B5	0.1
B6	0.3
B7	0.7

Each binder was assayed against T2, human LIGHT (TNFSF14), full length, … (assay: DcR3-His (1 nM) competition, EL4-LIGHT, flow cytometry; 0.41 nM).
Protocol: (§2) EL4-LIGHT cells (0.25×10⁶) were preincubated with anti-membrane LIGHT mAbs (0-300 nM) for 15 min at 4° C. followed by incubation with DcR3-His tagged (1 nM, Creative BioMart; ref: TNFRSF6B-552H, lot: 962512) for 30 min at 4° C. The samples were then incubated with mouse anti-histag antibody (diluted 1:500, Biolegend, cat. no. 652502) for 30 minutes at 4° C., followed by incubation with anti-mouse APC (dil 1:500, BDBiosciences, cat. no. 550826) for 30 minutes at 4° C. The tubes were washed three times after each of the detection antibody stages and flow cytometry analysis was performed. Specific mean fluorescence intensity (MFI) obtained from the binding of DcR3-His to LIGHT on EL4 cells were used to determine the levels of competition binding.
(§3) In humans, LIGHT is neutralized by DcR3, a unique soluble member of the TNFR superfamily, which tightly binds LIGHT (both soluble and membrane forms) and inhibits its interactions with HVEM and LTβR. A major binding determinant for DcR3 neutralization is the region T170-E178 on LIGHT (Liu et al. Structure 2014: 9; 1252-1262). […] In contrast the anti-LIGHT mAb F19, (from EP2292663) which binds both soluble LIGHT and membrane LIGHT equally well completely displaces DcR3 from binding to membrane LIGHT highlighting a surprising an important functional difference between the anti-membrane LIGHT mAbs of this invention and other neutralizing anti-LIGHT mAbs that have been raised against or screened against soluble LIGHT.
Target sequence in this assay (O43557 whole entry K214E): as the sequence (O43557 whole entry K214E) above

Binder	DcR3-His binding, % of irrelevant mAb [%]
B1	107
B2	102
B3	124
B4	114
B5	94.8
B6	99.4
B7	94.2

Each binder was assayed against T2, human LIGHT (TNFSF14), full length, … (assay: DcR3-His (1 nM) competition, EL4-LIGHT, flow cytometry; 11.1 nM).
Protocol: as §2, §3

Binder	DcR3-His binding, % of irrelevant mAb [%]
B1	85.7
B2	75.8
B3	83.6
B4	77.5
B5	78.3
B6	61.1
B7	71.1

What follows are binders tested against T2, human LIGHT (TNFSF14), full length, … (assay: DcR3-His (1 nM) competition, EL4-LIGHT, flow cytometry; 3.7 nM).
Protocol: as §2, §3
Target sequence in this assay (O43557 whole entry K214E): as above

Binder	DcR3-His binding, % of irrelevant mAb [%]
B1	66.1
B2	89.6
B3	86.9
B4	78.6
B5	78.5
B6	68.6
B7	80.4

These binders were tested against T2, human LIGHT (TNFSF14), full length, … (assay: competition with biotin-HVEM:Fc, HEK293FF LIGHT cells, flow cytometry).
Protocol: The ability of the 7 chimeric mAbs to block biotin-HVEM:Fc and biotin-LTβR:Fc fusion proteins to cell surface expressed LIGHT using a flow cytometric based assay is shown in FIGS. 1A and 1B respectively. In these experiments, graded amounts of each antibody were added to the HEK293FF cells transiently transfected with LIGHT with a 50% saturating amount of the receptor fusion protein. As shown, each of the antibodies blocked either receptor fusion protein from binding LIGHT, in contrast to the irrelevant antibody control which had no effect on either Fc-receptor fusion protein binding. In each experiment, all antibodies blocked receptor binding in a dose dependent manner enabling analysis by non-linear regression to determine the IC50 dose as shown in Table 11A.
Target sequence in this assay (O43557 whole entry K214E): as above

Binder	IC50 [nM]
B1	23.8
B2	2.5
B3	2.1
B4	2.9
B5	1.2
B6	1
B7	36.6

These binders were tested against T2, human LIGHT (TNFSF14), full length, … (assay: competition with biotin-LTβR-Fc, EL4-LIGHT cells, flow cytometry).
Protocol: (§4) Biotin-LTβR-Fc and biotin-HVEM-Fc were prepared using a kit purchased from ThermoFisher (EZ-Link NHS-LC-Biotin; cat. no. 21336) according to the manufacturer's instructions. […] The diluent used was FACS buffer. The cells were washed 3 times with FACS buffer and biotin-LTβR-Fc and biotin-HVEM-Fc binding detection to cells was performed with streptavidin-APC (1:400; BioLegend cat. No. 405207) for 30 min at 4° C. and fluorescence read in the RL-1 channel. The anti-HEL mAb 2A11 was utilised as a background control.
(§5) The above experiment was repeated utilising LIGHT stably expressed on EL4-cells and the results depicted in Table 11B.
Target sequence in this assay (O43557 whole entry K214E): as above

Binder	IC50 [nM]
B1	5.7
B2	0.35
B3	0.86
B4	0.36
B5	0.19
B6	0.19
B7	38

These binders were tested against T2, human LIGHT (TNFSF14), full length, … (assay: DcR3-His (1 nM) competition, EL4-LIGHT, flow cytometry; 33.3 nM).
Protocol: as §2, §3
Target sequence in this assay (O43557 whole entry K214E): as above

Binder	DcR3-His binding, % of irrelevant mAb [%]
B1	78.4
B2	67.5
B3	81.9
B4	79.8
B5	85.1
B6	78.1
B7	70.5

What follows are binders tested against T2, human LIGHT (TNFSF14), full length, … (assay: competition with biotin-HVEM-Fc, EL4-LIGHT cells, flow cytometry).
Protocol: as §4, §5

Binder	IC50 [nM]
B1	4.3
B2	0.32
B3	0.8
B4	0.34
B5	0.13
B6	0.16
B7	24.1

Each binder was assayed against T2, human LIGHT (TNFSF14), full length, … (assay: DcR3-His (1 nM) competition, EL4-LIGHT, flow cytometry; 100 nM).
Protocol: as §2, §3

Binder	DcR3-His binding, % of irrelevant mAb [%]
B1	53.7
B2	64.2
B3	63.8
B4	70.6
B5	75.8
B6	80.3
B7	65

The binders below were run against membrane LIGHT without residues 81-84 (EL4-NC-LIGHT cells) (human, UniProt O43557 1-240) (assay: cell-based or functional assay).
Chain of membrane LIGHT without residues 81-84 (EL4-NC-LIGHT cells) (O43557 other isoform, or with tags, fused parts or gaps): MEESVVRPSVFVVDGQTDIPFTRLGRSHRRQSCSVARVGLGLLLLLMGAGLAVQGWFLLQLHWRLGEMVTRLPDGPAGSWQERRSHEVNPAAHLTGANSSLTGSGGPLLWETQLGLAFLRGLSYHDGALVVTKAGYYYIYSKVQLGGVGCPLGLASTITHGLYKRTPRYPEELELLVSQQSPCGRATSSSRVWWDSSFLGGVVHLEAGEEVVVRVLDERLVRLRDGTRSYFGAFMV

Binder	IC50, nM membrane LIGHT (IL-8 release from HT-29 cells) [nM]
B1	1.8
B2	2
B3	1.9
B4	0.55
B5	0.15
B6	0.1

Molecular target: T1, recombinant human soluble LIGHT, amino …
Assay: cell-based or functional assay

Binder	IC50, nM soluble LIGHT (5 ng/ml; IL-8 release from HT-29 cells) [nM]
B1	> 100
B2	> 100
B3	> 100
B4	47
B5	6.5
B6	3.4
